This note sets out measurements from patent US20250387474A1 (MEDICENNA THERAPEUTICS, published 2025).

Broadly, the Kd is the free concentration of one partner at which half of the binding sites on the other are occupied at equilibrium, for simple one-to-one binding. Read a low Kd as tighter binding.

The target of this assay is T1, MDNA132LR-Fc (1:1 KIH) (Homo sapiens (Human), UniProt P0DOX5 223-448 = IgG part).
T1 construct: also called MDNA132^L39/R111-Fc (1:1 KIH); MDNA132-Fc
The assay is described as follows: SPR, construct captured on anti-human IgG (Fc) antibody on a CM5 chip, human receptor as analyte. In general terms: SPR reads the build-up and loss of mass on a sensor chip optically.

B1: human IL-13Rα2 (receptor, UniProt Q14627 27-343, looked up)
chain: DTEIKVNPPQDFEIVDPGYLGYLYLQWQPPLSLDHFKECTVEYELKYRNIGSETWKTIITKNLHYKDGFDLNKGIEAKIHTLLPWQCTNGSEVQSSWAETTYWISPQGIPETKVQDMDCVYYNWQYLLCSWKPGIGVLLDTNYNLFYWYEGLDHALQCVDYIKADGQNIGCRFPYLEASDYKDFYICVNGSSENKPIRSSYFTFQLQNIVKPLPPVYLTFTRESSCEIKLKWSIPLGPIPARCFDYEIEIREDDTTLVTATVENETYTLKTTNETRQLCFVVRSKVNIYCSDDGIWSEWSDKQCWEGEDLSKKTLLR
notes: also called Human IL-13 R alpha 2 Protein; IL-13 decoy receptor
B1: binding was put at a Kd of 3.6 nM.

B2: human IL-13Rα1 (receptor)
chain: GGGGAAPTETQPPVTNLSVSVENLCTVIWTWNPPEGASSNCSLWYFSHFGDKQDKKIAPETRRSIEVPLNERICLQVGSQCSTNESEKPSILVEKCISPPEGDPESAVTELQCIWHNLSYMKCSWLPGRNTSPDTNYTLYYWHRSLEKIHQCENIFREGQYFGCSFDLTKVKDSSFEQHSVQIMVKDNAGKIKPSFNIVPLTSRVKPDPPHIKNLSFHNDDLYVQWENPQNFISRCLFYEVEVNNSQTETHNVFYVQEAKCENPEFERNVENTSCFMVPGVLPDTLNTVRIRVKTNKLCYEDDKLWSNWSQEMSIGKKRNST
notes: also called Human IL-13 R alpha 1 Protein; IL-13 functional receptor
Take B2: the binding result is reported as “no binding (tested: 1000 nM)”.
